Assay results taken from the nanobody polyreactivity screen of Harvey et al. (2022).

Assay: yeast display, Sf9 membrane polyspecificity reagent, FACS + sequencing; frameworks hold sequencing errors
Summary of the method: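 After 36–48 hours of galactose induction, yeast (Saccharomyces cerevisiae BJ5465) displaying a synthetic nanobody library were stained at 4 °C for 1 hour with 10% biotinylated, detergent-solubilized Sf9 membrane reagent. Streptavidin microbeads enriched the stained cells before FACS sorting into low and high (top ~1%) gates on anti-HA and streptavidin fluorescence. Each clone's polyreactivity label reflects its gate of origin.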

Sequence	polyreactivity (PSR sort gate)
QVQLVESGGGLVQAGGSLRLSCAASGIIFYHNAMGWYRKAPGKERELVATIRSSGDGTYYADSVKGRFTISRDNAKNTVYLQMNSLKPEDTAVYYCAAYWAHSYSYSVSRRYYYWGQGTQVTVSS	low polyreactivity
PVQLLESGRGLVQAGGRLRLSCAASGINFKYNAMGWYRQAPGKERELVAAISWRGGSTYYADSVKGRFTISRDNAKNTVSLQMNSLKPEDTAVYSCAANLAGSSYYDWGQGTQVTVSS	low polyreactivity
QVQLVESGGGLVQAGGSLRLSCAASGSIFNWNAMGWYRQAPGKERDLVATITITTSTNYADSVKGRFTISRDNAKNSVYLQMNCLKPEDNGVYYCNAGDPYRYLDDYNYWGQGTKVTVSS	low polyreactivity
QVQLVESGGGLVQAGGSLRLSCAASGRIFYYNGMGWYRQAPGKERELVAAITANGGSTYYADSVKGRFTISRDNAKHTVYLQMNSLKPEDTAVYYCAAVYQLYYSAGRGYDYWGQGTQVTVSS	high polyreactivity
QVQLVESGGGLVQAGGSLRLSCAASGFIFPYYAMGWYRQAPGKERELVAANSRRGTSTFYADSVKGRFTISRDNAKNNVYLQMNSLKTEDTAVYYCNAEYGIGDDSWVQGTQVTVSS	high polyreactivity
QVQLVESGGGLVQAGGSLRLSCAASARIYTTYAMGWYRQAPGKERELVASITTTDTRTYADSVKGRFTISRDNAKNTVYLQMNSLKPEDTAVYYCAKDRLNKGRYYRGASDYWGLGTQVTVSS	low polyreactivity
QVQLVESGGGLVQAGGSLRLSCAASGRTFNPYSLGWYRQAPGIVRELVAAISYRGGSTYNADSVKGRFTISRDNAKNTVYLQLNSLKPEDTAVYYCAKRGYASGSKWDYGYWGQGTQVTVSS	high polyreactivity
QVQLVESGGGLVQAGGSLRLSCAASGNTFPGYAMGWYRQAPGKEREFVATITSNDGTTYYADSVKGRFTISRDNAKNTVYLQLNSLKPEDTAVYYCAKRLSDSWPPNWGYNYWGQGTQVTVSS	low polyreactivity
QVQLVESVGGLVQAGGSLRISSAASGRIFTGNGMGWYRQAPGKERELVASITYNGGRTYYADSVKGRFTISRDNAKNTVYLQINSLKPEDTSVYYCNAGDYGFRYEYWGQGTQVTVSS	low polyreactivity
QDQLVESGGGLVQAGGSLRLSCADYGINFYSYAMGWYRQAPGKEREFVAAISTGSSTNYADSVKGRFTISRDNAKNNVYLQMISLKPEDTAVYYCAKSTAVKPYAYRESGFIYDYWGQGTQLTVSS	low polyreactivity
QDQLVESVGGLDQAGVSLRLSCAASGFIFRAYAMGWYRQAPGKERELVAAITKRSGTTYYADSVKGRFTISRDNAKNTVYLQMNSLKPEDTAVYYCAAKTLYNSGTQDRAMGYWGQGTQVTVSS	high polyreactivity
QVQLVESGGGLVQAGGSLRLSCAASRSTFPKYAMGWNRKAPGKERELVASISVTTGSPYYADSVKGRFTISLDNAKNTVYLQKNSLKPEDTAVYYCAKRTYSRKFRGAYNYWGQGTQVSVSS	high polyreactivity
QVQLVESGGGLVQAGGSLRLSCAASGRTFRYYTMGWYRQAPGKEREFVAAISSTGGTYYADSVKGRFTISRDNAKNTVYLQMNCLIPEDTAVYYCAATFIQVVVNVQLYDYDYWGQGTQVTVSS	low polyreactivity
QVQHVESGGGLVQAGGSLRLSCAASGIILRSNAMGWYRQAPGKERELVAAINYSGGRTYYADSVKGRFTISRDTAKNTVYLQMNSLKPEDTAVYYCAAGGYPYGLSRVKLYYWGQGTQVTVSS	high polyreactivity
QVQLEESGGVLVQAGGSLRLSCAASGSIFDAYAMGWYRQAPGKDRELVADITVSAGRTYYADSVNGRFTISRDNAKNTVYLQMNSLKPEDTAVYYCAADSIVGDGYWSYYWGQGTQVTVSS	low polyreactivity
QVQLVESGGGFVQAGGSLRLSCAASGFTFQYYGMGWYRQAPGKERELVAAINWSGGRTYYADSVKGRFTISRDNAKNTVYLQMNSLKPEDTAVYYCAATRSFSGGYGYVSYDYWGQGTQVTVSS	high polyreactivity
QVQLVESGGGLDLAGGSLRLSCAASGRTFLYYAMGWYRQAPWKDREFVASIRRGGGSTYYADSVKGRFTFSRDNAKHTVYLQMHSLKPVDTAVYYCAAQPYTLSLFRLNYDYWGQGTQVTVSS	low polyreactivity
QVQLVESGGGLVQAGGSLRLSCAASGRIFNSYAMGCYRQAPGKERELVAAINWTDVSTYYADSVKGRFTISRDNAKNTVYLQMNSLKPEDTAVYYCAAVRWGSYTLSDDYWGQGTQVTVSS	low polyreactivity
QVQLVESGGGLVQAGGSLRLSCAASGLIYFYAMGWYRQAPGKERELVAAISSSGGRTYYADSVKGRFTISRDNAKNTVYLQMNSLKPEDTAVYYCAVVSSHYIGPGRNGYDYWGQGTQVTVSS	high polyreactivity
QVQLVESGGGLVQAGGSLRLSCAASGSIFVKYAMGWYRQAPGKERELVAAISRNGGSTYYADSVKGRFTISRDNAKNTVYLQMNSLKPEDTAVYYCNKVRPGWTYEYGYWGQGTQVTVSS	high polyreactivity
QVQLVESGGGLVQAGGSLRLSCAASGSIFYQYAMGWYRQAPGKERELVAAISVRAGITYYADSVKGRFTISRDNAKNTVYLQMNSLKPEETAVYYGAKDHWTTSYDEGDYWGQGTQVTVSS	low polyreactivity
QVQLVESGGGLVQAGGSLRLSCAASGSIFLGYTMGWYRQAPGKERELVAAINSSGGSTYYADSVKGRFTISRDNAKNTVYLQMNSLKAEDTAVYYCADANSILLFDSWGQGTQVTVSS	low polyreactivity

Sequence	polyreactivity (PSR sort gate)
QVQLVESGGGLVQAGGSLRLSCAASGSTFDDNAMGWYRQAPGKDRELVAGISTNGGSTSYADSVKGRFTISRDNAKNTVYLPMNSLKPEDTAVYYCAKGLYVQFDYWGQGTQVTVSS	low polyreactivity
QVQLVESGGGLVQAGGSLRLSCAASGSTFAPNAMGWYRQAPGKEKEIVSGITWGDSTYYADSVKGRFTISRDNAKNTVYLQMNSLKPEDTAVYYCAVRWVWNPWGIQGDWAVDYDYWGQGTQVTVSS	low polyreactivity
QVQLQEIGGGLVQAGGSLRLRCAASRNISGSSDLGWYHQAPGKEREFVASITSGGTTYYADSVKGRFTISRDNAKKTVYLQMNSLKAEDTAVYYCAVGDPADAEFGYWGQGTQVTVSS	low polyreactivity
QVQLVESGGGLVQAGGSLRLSCAASGSTFGYNAMGWYRQAPGKEREFVATIRYSGDRTYYADSVKGRFTISRDNAKNTVYLQMNSLKPEDTAVYYCAADLYYNSYGRYGRYYYWGQGTQVTVSS	high polyreactivity
QVQLVESGGGLVQAGGSLRLSCAASGRTFWYYAMGWYRQAPGKERELVAAITYRGTRTYADSVKGRFTISRDNAKNTVYLQMNSQKPEDTPVYYCAKDVGYRYSRTMDYWGQGTQVTVSS	high polyreactivity
QVQLVESGGGLVQAGGSLRLSCAASGRIFYYYAMGWYRQAPGKERELVAAISWSGGSTYYADSVKGRFTISRDNAKNTVYLQMNSLKPEDTAVYYCAAESRKYREYYYWGQGTQVTVSS	high polyreactivity
QVQLVESGGGLVQAGGSLRLSCAASGIIFPRYMGWYRQEPGKERELVAAIRWSSDDTNYADSVKGRFTISRDNAKNTVYLQMNSLKPEDSAVYYCAKDSLYGVPFDVDYWGQGTQVTVSS	low polyreactivity
QVQLIESGGGLVQAGGSLRLSCAASGLTFYSYAMGWYRQAPGKEREFVAVINWSGGRTYYADSVKGRFTISRDTAKNTVFLQMNSLKPEDTAVYYCAAVRYFASSRRYDYLGQGTQVTVSS	high polyreactivity
QDQHVQSGVGIVQAVGSLRLSCAASGFTIPSYAMGWYRMAPGKEREFVAAISWNSGSTYYADSVKGRFTISRDNAKNTVYLQMNSLKPEDTAVYYCNAGAYVRRRYAPGYSFEYDSWGQGTQVTVSS	high polyreactivity
QVQLVESGGGLVQAGGSLRLSCAATGFTFYGYAMGWYRQAPGKERELVAAISRRSSSTYYADSVKGRFTISRDNAKNTVYLQMNSLKPEDTAVCYCNTVFQRSGYAAGVDYWGQGTQVTVSS	high polyreactivity
QDQLVESGGGLVQAGGSLRLSCAASGRIFAGYTMGWSRQAPGKERELVAAISWSGGRTYYADSVKGRFTISRDNAKNTVYLQMNSLKPEDTAVYYCNIVGWYHNYYYWGQGTQVTVSS	high polyreactivity
QVQLVESGGGLVQAGGSLRLSCAASGSIFGYYAMGWYRQAPGKERELVASIRRGSSTNYADSVKGRFTISRDNAKHTVYLQMNSLKPEDTAVYYCNAVLLSYDGRGYSNLYDYWGQGTQVTVSS	low polyreactivity
QVQLVESGGGLVQAGGSLRLSCAASGRTFVYYAMGWYRQAPGKEREFVAAISRSGGRTSYADSVKGRFTISRDNAKNTVYLQMNSLKPEDTAVYYCAAEKRTQPTSREYYWGQGTQVTVSS	high polyreactivity
QVQLVESGGGLVQAGGSLRLSCAASGSTFPVYAMGWYRQAPGKERELVAAINSGVSTNYADSVKGRFTISRDNAKNTVYLQMNSLKPEDTAVYYCNTSYVGYPDLGINYEFDYWGQGTQVTVSS	low polyreactivity
QVQLKDSGCGLVQAGGSLRLSCAASGTISYRYRMGWYREAPRKELELVAGISFGSITYYADSVKGRFTISRDNAKNTVYLQMNSLKPVDIAVYYCAVYQKSYRFFPYWGQGTQVTVSS	high polyreactivity
QVQLVESGGGLVQAGGSLRLSCAAYGSTFFLYAMGWYRQAPGKVRELVAAITYTDGDTYYADSVKGRFTISRDNAKHTVYLQMNSLKPEDTAVYYCNAGGDEPVYGSGYDYWGQGTQVNVSS	low polyreactivity
QVQLVESGGGIVQAGGSLRLSSAASGSIFYYYAKGWYRQAPGKERELVATINISDGSTYYADSVKGRFTISRDNAKNTVYLQMNSLKPEDTAVYYCAAYYYFLDYDYWGQGTQVTVSS	low polyreactivity
QVQLVESGGGLVQAGGSLRLSCAASGFTFKDNTMGWYRQAPGKEGELVAAISSRGGSTYYADSVKGRFTISRDTAKNTVYLQMNSLKPEDTAVYYCAARSHSSRSRSPGDYWGQGTQVTVSS	high polyreactivity
QVQLVESGGGLVQAGGSLRLTCAASGRIFRVNGMGWYRQAPWKERDLVAPIRRSGGSTYYADSVKGRFTISRDNSKNNVYLQMKSLKPEDTAVYYCAAPVLLSSYTRYDSWGQGTQVTVSS	high polyreactivity
QVQLVESGGGLVQAGGSLRLSCAASGSTFDPYAMGWYRQAPGKERELVAAISRSGASTYADSVKGRFTISRDNAKNTVYLQMNSLKPEDTAVYYCAADSGYPYDYWGQGTQVTVSS	low polyreactivity
QVQLVESGGGLVQAGGSLRLSCAASGSTFSLYAMGWYRQAPGKERELVADINSGGGTYYADSVKGRFTISRDNAKNTVYLQMNSLKPEDTAVYYCTAASSWSYFWYDYWGQGTQVTVSS	high polyreactivity
